Consider twelve molecules from publication PMC4538832, “Structures of the T. brucei kRNA editing factor MRB1590 reveal unique RNA-binding pore motif contained within an ABC-ATPase fold”.

Broadly, the Kd is the free concentration of one partner at which half of the binding sites on the other are occupied at equilibrium, for simple one-to-one binding.

In series [1] the target is T1, MRB1590(10-668) (Trypanosoma brucei, UniProt UPI00067E648B 10-668).
T1 sequence: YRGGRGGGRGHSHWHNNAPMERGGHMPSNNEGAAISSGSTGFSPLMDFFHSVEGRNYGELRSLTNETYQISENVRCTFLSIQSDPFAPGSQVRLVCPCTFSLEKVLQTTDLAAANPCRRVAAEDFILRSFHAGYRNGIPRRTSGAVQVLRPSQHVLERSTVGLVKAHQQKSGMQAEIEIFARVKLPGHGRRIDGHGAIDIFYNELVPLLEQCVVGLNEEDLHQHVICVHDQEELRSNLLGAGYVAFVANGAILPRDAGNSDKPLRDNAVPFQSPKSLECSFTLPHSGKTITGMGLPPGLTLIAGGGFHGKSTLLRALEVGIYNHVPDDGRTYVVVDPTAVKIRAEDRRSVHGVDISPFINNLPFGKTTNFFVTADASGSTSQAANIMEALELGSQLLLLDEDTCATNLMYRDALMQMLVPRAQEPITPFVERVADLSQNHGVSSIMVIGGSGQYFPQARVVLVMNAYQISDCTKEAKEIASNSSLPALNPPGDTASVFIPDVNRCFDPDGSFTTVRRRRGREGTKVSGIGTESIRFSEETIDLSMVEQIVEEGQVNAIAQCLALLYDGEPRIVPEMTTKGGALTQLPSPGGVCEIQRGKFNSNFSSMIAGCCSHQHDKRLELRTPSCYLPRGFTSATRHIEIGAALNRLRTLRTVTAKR
The experiment in a line: fluorescence polarization; ADP, Mg2+; FP: 20 mM Tris-HCl pH 7.5, 150 mM NaCl, 5% glycerol, 1 mM MgCl2, 2 mM ADP or AMP-PNP, 1 nM 3'-fluoresceinated RNA (heated to 99 C, slow cooled), 25 C. The settings on record: protein: recombinant, chain copies: 2.

For series [2], the target named is T1, MRB1590(10-668). The experiment in a line: fluorescence polarization; AMP-PNP (table header says ATP), Mg2+; FP: 20 mM Tris-HCl pH 7.5, 150 mM NaCl, 5% glycerol, 1 mM MgCl2, 2 mM ADP or AMP-PNP, 1 nM 3'-fluoresceinated RNA (heated to 99 C, slow cooled), 25 C. Particulars: protein: recombinant; chain copies: 2; label: 3' fluorescein. (In general: Polarisation of emitted light reports the rotation of a fluorescent probe.)

Series [3] has as its target MRB1590 R199A-R200A (Trypanosoma brucei, UniProt UPI00067E648B 10-668, R199A;R200A). In words: fluorescence polarization; ADP, Mg2+; FP: 20 mM Tris-HCl pH 7.5, 150 mM NaCl, 5% glycerol, 1 mM MgCl2, 2 mM ADP or AMP-PNP, 1 nM 3'-fluoresceinated RNA (heated to 99 C, slow cooled), 25 C. The settings on record: protein: recombinant; chain copies: 2; label: 3' fluorescein.
In series [4] the target is MRB1590 F95A (Trypanosoma brucei, UniProt UPI00067E648B 10-668, F95A). The series is described as above. The settings on record: protein: recombinant; chain copies: 2; label: 3' fluorescein.
For series [5], the target named is T1, MRB1590(10-668). The experiment in a line: fluorescence polarization; ADP, Mg2+; 1 RNA : 2 subunits; FP: 20 mM Tris-HCl pH 7.5, 150 mM NaCl, 5% glycerol, 1 mM MgCl2, 2 mM ADP or AMP-PNP, 1 nM 3'-fluoresceinated RNA (heated to 99 C, slow cooled), 25 C. The settings on record: protein: recombinant; chain copies: 2; label: 3' fluorescein.
The target in series [6] is MRB1590 R191A (Trypanosoma brucei, UniProt UPI00067E648B 10-668, R191A). In words: fluorescence polarization; ADP, Mg2+; small effect vs wt; FP: 20 mM Tris-HCl pH 7.5, 150 mM NaCl, 5% glycerol, 1 mM MgCl2, 2 mM ADP or AMP-PNP, 1 nM 3'-fluoresceinated RNA (heated to 99 C, slow cooled), 25 C. The settings on record: protein: recombinant; chain copies: 2; label: 3' fluorescein.

Series [7] addresses MRB1590 Y637A (Trypanosoma brucei, UniProt UPI00067E648B 10-668, Y637A). In words: fluorescence polarization; ADP, Mg2+; little effect vs wt; FP: 20 mM Tris-HCl pH 7.5, 150 mM NaCl, 5% glycerol, 1 mM MgCl2, 2 mM ADP or AMP-PNP, 1 nM 3'-fluoresceinated RNA (heated to 99 C, slow cooled), 25 C. The settings on record: protein: recombinant; chain copies: 2; label: 3' fluorescein.

Turning to UGAUACAAAAAAACAUGACUACAUGAUAAGUA (ssRNA) [NAD7 #1], the Kd in series [1] (label: 3' fluorescein) was 50 ± 4 nM.

B1: dsGC-rich RNA (dsRNA)
RNA 1: AGGCGGGCGGGCGACGGCGGU
RNA 2: ACCGCCGUCGCCCGCCCGCCU
For B1, in series [1], the Kd was determined as 50 ± 15 nM.

On to ACAAUAUCAAGUUUAGGUAUAAAGUAGA (ssRNA) [COX II #1], for which the Kd in series [1] (label: 3' fluorescein) was 44 ± 2 nM.

Take GAUUUUUUGAGUGGGACUGGAGAGAAAGAGCCGUUCGAGC (ssRNA) [RSP12 #2]: the Kd in series [1] (label: 3' fluorescein) was 27 ± 2.8 nM.

Consider AAAAAAAAAAAAAAA (ssRNA) [A15 RNA], for which, in series [1] (label: 3' fluorescein), the Kd turned out to be 437 ± 80 nM.

ACCGCCGUCGCCCGCCCGCCU (ssRNA) [Complement of GC-rich RNA]: the values for the Kd in series [1] (label: 3' fluorescein) and in series [2] were 395 ± 95 nM and 377 ± 69 nM, respectively.

For GAACCUGGUAGGUGUAAUGAAAUAAUUUUGU (ssRNA) [COX II #2], the Kd in series [1] (label: 3' fluorescein) was determined as 43 ± 1.6 nM.

For AGAGGCGGGCGGGCGACGGCGGU (structured_RNA) [GC-rich hairpin RNA], in series [1] (label: 3' fluorescein, hairpin), the binding result was “no binding”.

As for GAGAAGGCGAGGGCGACGGGCAAAAGAUUUU (ssRNA) [NAD7 #2], the Kd in series [1] (label: 3' fluorescein) was determined as 7.8 ± 0.5 nM.

Turning to UUUUUUUUUUUUUUU (ssRNA) [U15 RNA], in series [1] (label: 3' fluorescein), the Kd was determined as 182 ± 30 nM.

Turning to AGGCGGGCGGGCGACGGCGGU (ssRNA) [GC-rich sequence RNA (A6 pause site, 21 mer)], the binding signal in series [3] is 590 fold reduction vs wt; in series [4] it was 10 fold reduction vs wt. Besides, the dissociation constant Kd in series [5] was found to be 2.2 ± 0.2 nM. Also, the binding result in series [6] and in series [7] was “binds” in each case.

In the case of CUAAUACACUUUUGAUAACAAACUAAAGUAAAAAGGCGAG (ssRNA) [RSP12 #1], the dissociation constant Kd in series [1] (label: 3' fluorescein) stood at 63 ± 2.5 nM.
